Results taken from the nanobody polyreactivity screen of Harvey et al. (2022).

experiment: yeast display, Sf9 membrane polyspecificity reagent, FACS + sequencing; frameworks hold sequencing errors
Procedure, shortened: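 Polyreactivity labels are assigned by the sorting gate from which each nanobody was recovered. The gates were low and high (top ~1%), set on anti-HA fluorescence for expression and streptavidin fluorescence for reagent binding. Before sorting, galactose-induced (36–48 hours) yeast display cells were stained for 1 hour at 4 °C with 10% biotinylated, detergent-solubilized Sf9 membrane reagent.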

Sequence	polyreactivity (PSR sort gate)
QVQLVESGGGLVQAGGSLRLSCAASGSTFYYYAMGWYRPAPGKERELVAAINYNGGSTHYADSVKGRFTISRDNAKNTVYLQMNSLKPEDTAVYYCAAKYRLSYTHGYWGQGTQVTVSS	low polyreactivity
QVQLVESGGGLVQAGGSLRLSCAASGSTFYYYAMGWYRQAPGKEREFVAAISGGDGTTSYADSVKGRFTISRDNAKNTVYLQMNSLKPEDTAVYYCATPYTSYLYGYDYWGQGTQVTVSS	low polyreactivity
QVQLVESGGGLVQAGGSLRLSCAASGSTFYYYAMGWYRQAPGKEREFVASISSRGTSTYYADSVKGRFTISRDNAKNTVYLQMNRLKPEDTAVYYCAARGWGPTRAYDYWGQGTQVTVSS	high polyreactivity
QVQLVESGGGLVQAGGSLRLSCAASGSTFYYYAMGWYRQAPGKERELVAAINYNGGSTHYADSVKGRFTISRDNAKNTVYFQMNSLKPEDTAVYYCAAKYRLSYTHGYWGQGTQVTVSS	low polyreactivity
QVQLVESGGGLVQAGGSLRLSCAASGSTFYYYAMGWYRQAPGKERELVAAIRSSGGSTYYADSVKGRFTISRDNAKNTVYLQMNSLKPEDTAVYYCIHYLSTYHGTFTYGYWGQGTQVTVSS	low polyreactivity
QVQLVESGGGLVQAGGSLRLSCAASGSTFYYYAMGWYRQAPGKERELVATIDSGTSTYYADSVKGRFTISRDNAKNTVYLQMISLKPEDTAVYYCAAKTWSWSYGYNYWGQGTQVTVSS	low polyreactivity
QVQLVESGGGLVQAGGSLRLSCAASGSTFYYYAMGWYRQAPGKERELVATISSGSSTNYADSVKGRFTISRDNAKNTVYLQMNCLKPEDTAVYYCAADRWYITLSIDATISYDYWGQGTQVTVSS	low polyreactivity
QVQLVESGGGLVQAGGSLRLSCAASGSTFYYYAMGWYRQAPGKERELVAVIRDSDGSTDYADSVKGRFTISRDKAKNTVYLQMNSLKPEDTAVYYCAATNVRGVYYWGQGTQVTVSS	high polyreactivity
QVQLVESGGGLVQAGGSLRLSCAASGSTFYYYAMGWYRQAPGKVRELVATISWSGDSTYADSVKGRFTISRDNAKNTVYLQMNSLKPEDTAVYYCATSGDWWGFRYVYWGQGTQVTVSS	low polyreactivity
QVQLVESGGGLVQAGGSLRLSCAASGSTFYYYGMGWYRQAPGKERELVATISGSGGSTYYADSVKGRFTITRDNAKNTVYLQMNSLTQEDTSVYYCNKDVLPSQTYSNVYWGQGTQVSVSS	low polyreactivity
QVQLVESGGGLVQAGGSLRLSCAASGSTFYYYVMGWYRQAPGKERELVAAISRGGGSTYYADSVKGRFTISRDNAKNTVYLQMNSLKPEDTAVYYCAAASYYVEGDYWGQGTQVTVSS	low polyreactivity
QVQLVESGGGLVQAGGSLRLSCAASGSTFYYYVMGWYRQAPGKERELVAVISKSGGSTRYADSVKGRFTISRDNAKNTVYLQMNSLKPEDTAVYYCAADGLRLVPGYKYDYWGQGTQVTVSS	high polyreactivity
QVQLVESGGGLVQAGGSLRLSCAASGSTGYYAMGWYRQAPGKERELVAAISYRGASTYYADSVKGRFTISRDNAKNTVYLQMNSLKPEDTAVYYCAALRQERVKYGYWGQGTQVTVSS	high polyreactivity
QVQLVESGGGLVQAGGSLRLSCAASGSTIATYAMGWYRQAPGKERELVATISSSGSGTYYADSVKGRFTISRDNAKNTVYLQMNSLKPEDTAVYYCAVDSRGKLGISGEYGYWGQGSQVTVSS	low polyreactivity
QVQLVESGGGLVQAGGSLRLSCAASGSTIDINTKGWYRQAPGKEREFVAAITDSDDSTYYADSVKGRFTISRDNAKNTVYLQMNSLKPEDTAVYYCATDPDYVLYRTAYYEYDYWGQGTQVTVSS	low polyreactivity
QVQLVESGGGLVQAGGSLRLSCAASGSTIDVYTMGWYRQAPGKERELVAAISRGSSTYYADSVKGRFTISRDNAKNTVYLQMNSLKPEDTAVYYCNAVTSRKYRRYGYGYWGQGTQVTVSS	high polyreactivity
QVQLVESGGGLVQAGGSLRLSCAASGSTIDVYTMGWYRQAPGKERELVAAISRGSSTYYADSVKGRFTISRDNAKYTVYVQMNSLKPEDTAVYYCNAVTSRKYRRYGYGYWGQGTQVTVSS	high polyreactivity
QVQLVESGGGLVQAGGSLRLSCAASGSTIDYYAMGWYRQAPGKERELVAGIDSAGSTNYADSVKGRFTISRDNAKNTFYLQMNSLKTGRYRGLYCNVGKTITTYAFTTFDYWGQGTHVTVSS	low polyreactivity
QVQLVESGGGLVQAGGSLRLSCAASGSTIEPYAMGWYRQAPGKERELLAAITLSAGSTYYADSVKGRFTISRDYAKNTVYLQMNSLNPEDTAVYYCNADYGYNNQLLWGYYGWSSDHWGQGTQVTVSS	low polyreactivity
QVQLVESGGGLVQAGGSLRLSCAASGSTIFAYAMGWYRQAPGKERELVAAIRRGGTSTYYADSVKGRFTISRDNAKNTVYLQMNSLKPEDTAVYYCNKAYITKRGVSGSNDYWGQGTQVTVSS	low polyreactivity
QVQLVESGGGLVQAGGSLRLSCAASGSTIFGNVMGWYRQAPGKERELVAAISKTGGNTYYADSVKGRFTISRDNAKNTVYLQMNSLKPEDTAVYYCNALRGDWRDMGYWGQGTQVTVSS	high polyreactivity
QVQLVESGGGLVQAGGSLRLSCAASGSTIGPYAMGWSRQAPGKERELVAAITISGDSTNYADSVKGRFTISRDNAKNTVYLQMLSLKPEDTAVYYCAAAYYWLQSWYDYWGQGTLVTVSS	low polyreactivity

Sequence	polyreactivity (PSR sort gate)
QVQLVESGGGLVQAGGSLRLSCAASGSTIGRNAMGWDRQAPGNERELVASITDSSGSPNYADSVKGRFTISRDNAKNSVYLQMHSLKPEDTAVYYCATGYYYYTRYRYHTKYYSWGQGTQVTVSS	high polyreactivity
QVQLVESGGGLVQAGGSLRLSCAASGSTIGSYAMGWYRQAPGKERELVAAITWNGGGTYYADSVKGRFTISRDNAKNTVYLQMNSLKPEDTAVYYCAADGWFGRVAPGSDYWGQGTQVTVSS	low polyreactivity
QVQLVESGGGLVQAGGSLRLSCAASGSTIHDYAMGWYRQAPGKEREFVAAISNSGGSTYYADSLKGRFTISRDNAKNTVYLQMNSLKPEDTAVYYCAADGRWYWDYEYWGQGTQVTVSS	low polyreactivity
QVQLVESGGGLVQAGGSLRLSCAASGSTIHINAMGWYRQAPGKERELVADINWSGGSTYYADSVKGRFTISRDNAKNTVYLQMNSLKPADSAVYYCAADVGVFTYSPYDAGEHDYWGQGSQVTVSS	low polyreactivity
QVQLVESGGGLVQAGGSLRLSCAASGSTIIRNAMGWYRQAPGKERELVAAISTSAGRTHYADSVKGRFTISRDHAKNTVYLNMNSLKPEDTAVSYCATRGKGHYYYWGQGTKVTVSS	high polyreactivity
QVQLVESGGGLVQAGGSLRLSCAASGSTIKTYATMGWYRQAPGKERELVSAITSGSSTNYADSVKGRFTISRDNAKNNVYLQMNSLKPEATAVYYCAADDYYNWYLGEPGDYWGQGTQVTVSS	low polyreactivity
QVQLVESGGGLVQAGGSLRLSCAASGSTILYYGMGWYRQAPGKERELVATITWRGGRTYYADSVKGRFTISRDNAKNTVYLQMNSLKTEDTAVYYCARVRLTTYGYYSWGQGTQVTVSS	high polyreactivity
QVQLVESGGGLVQAGGSLRLSCAASGSTIPYNTMGWYRQAPGKERELVAAISSSCRSTYYADSVKGRFTISRDNAKKTVYLQMNSLKPEDTAVYYCNAQIVASYQARRYYYWGQGTQVTVSS	low polyreactivity
QVQLVESGGGLVQAGGSLRLSCAASGSTIRGYAMGWYRQVTGKEREMGADISWSGTSTKYADSVKGRFTISRDNAKNTVYLQMNSLKPEDTAVYYCAKRYVRFPWRMDYWGQGTQVTVSS	high polyreactivity
QVQLVESGGGLVQAGGSLRLSCAASGSTIRKYAMGWYRQAPGKERELVAAISARGGSTYYADSVKGRFTISRDNAKNTVYLQMNSLNPEDTAVYYCAADGYRPYSTFDYWGQGTQVTVSS	high polyreactivity
QVQLVESGGGLVQAGGSLRLSCAASGSTIRYYAMGWYRQAPGKERELVAAITSSGTSTYYADSVKGRFTISRDNAKNTVDLQMNRLKPEDTAVYYCAARPVYKWVSSRYDYWGQGTQVTVSS	low polyreactivity
QVQLVESGGGLVQAGGSLRLSCAASGSTISPNAMGWYRQAPGKERELVPAITWSGGSNTYADSVKGRFTISRDNAKNTVYLQMNSLKPEDTAVYYCATVGYLYTPVVVTWWDWGDYWGQGTQVTVSS	low polyreactivity
QVQLVESGGGLVQAGGSLRLSCAASGSTITFYTMGWYRQEPGKEREFVADIDDSGGITYYADSVKGRFTISRDNAKNTVYLQMNSLKPEDTAVYSCAAEYWTACYWICVDYWGQGTQVTVSS	high polyreactivity
QVQLVESGGGLVQAGGSLRLSCAASGSTITYYTMGWYRQAPGKERELVAAISGSGGRTYYADSVKGRFTISRDNAKNTVYLQMNSLKPEDTAVYYCAAVYQLSRYDYWGQGTQVTVSS	high polyreactivity
QVQLVESGGGLVQAGGSLRLSCAASGSTIVVYAMGWYRQAPGKARELVAAITTSDDSTYYADSVKGRFTISRDNAKNTVYLQMNSLKPEDTAVYYCAATLRWQDGYSGQGTQVTVSS	low polyreactivity
QVQLVESGGGLVQAGGSLRLSCAASGSTIVYYAMGWYRQAPGKERELVAAINYSSGSTYYADSVKGRFTISRDNSKNTVYLQMNSLKPEDTAVYYCATDLLYYQYYSEYDYWGQGTQVTVSS	high polyreactivity
QVQLVESGGGLVQAGGSLRLSCAASGSTIYFYAMGWYRQAPGKERELVAAITRSGSTYYADSVKGRFTISRDNAKNTVYLQLNSLKPEDTAVYYCNADQYYGCRYVYLRHYNYWGQGTQVTVSS	high polyreactivity
QVQLVESGGGLVQAGGSLRLSCAASGSTIYLYDMGWYRQAPGKERELVATITSGTSTTYADSVKGRFTISRDYAKNTVYLQMNSLKPADTAVYYCNATDVGIITVGYGHGGYYWGQGTQVTVSS	low polyreactivity
QVQLVESGGGLVQAGGSLRLSCAASGSTIYPYAMGWYRQAPGKERELVAAISSGGRTYYADSEKGRFTISRDKAKNTVYLQMNSLKPEDPAVYYCAARVTKKYRRTYDYWGQGTQVTVSS	high polyreactivity
QVQLVESGGGLVQAGGSLRLSCAASGSTIYRNAMVWYRQAPGKERELVAAISKSGGSTYYADTVKGRFTISRDNAKNTVYLQMNSQKPEDTAVYYCNSRYWVTTGGYWGQGTQVTVSS	high polyreactivity
QVQLVESGGGLVQAGGSLRLSCAASGSTIYVYAMGWYRQAPGKERELVAAITDSGGSTYADSVKGRFTISRDNAKNTVYLQMNSLKPEDTAVYADSTYNWYYYYWGQGTQVTVSS	low polyreactivity
